Results on 94 variants are retold here after the supplement of paper PMC10567573.

Sequences and labels used below:
B1: ADAMTS4 (parent)
chain: SFRKFRYGYNNVVTIPAGATHILV
B2: PRPH (parent)
chain: RTFGPPPSLSPGAFSYSSSSRFSS
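Note: lentivirally expressed fusions sorted by FACS into six bins by GFP to DsRed ratio, PSI derived from sequencing read proportions per bin multiplied by bin number.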

One data set covers variants of B1. The data set is described as follows: protein stability index of a GFP-peptide fusion (GPS, HEK-293T) (PSI 1-6); higher = more stable. As to conditions: c terminus: a fixed tail appended.
For SFRKFRYGYNNVVTIPAGATHILW [V24W], the protein stability index is 1.94.
The same measure, in the same setting: the value for SFRKFRYGYNNVVTIPAGATHILY [V24Y] was 2.57.

The variants in the next data set derive from B2. Described as above. As to conditions: c terminus: a fixed tail appended.
For the variant RTFGPPPSLKPGAFSYSSSSRFSS [S10K], the protein stability index turned out to be 3.06.
On the same count and under the same terms, the value for RTFGPPPSLNPGAFSYSSSSRFSS [S10N] was 3.15; that for RTFGPPPSLEPGAFSYSSSSRFSS [S10E] was 3.23; that for RTFGPPPSLRPGAFSYSSSSRFSS [S10R] was 3.15.
Still for that read-out and setting: then RTFGPPPSLFPGAFSYSSSSRFSS [S10F], with 2.67; and RTFGPPPSLIPGAFSYSSSSRFSS [S10I], with 3.19.
On to RTFGPPPSLDPGAFSYSSSSRFSS [S10D], for which the protein stability index worked out at 2.76.
Same read-out and setting: then RTFGPPPSLLPGAFSYSSSSRFSS [S10L], with 3.24; and RTFGPPPSLWPGAFSYSSSSRFSS [S10W], with 2.9; and RTFGPPPSLVPGAFSYSSSSRFSS [S10V], with 2.78.
On the same count and under the same terms, then RTFGPPPSLHPGAFSYSSSSRFSS [S10H], with 3.13; and RTFGPPPSLMPGAFSYSSSSRFSS [S10M], with 3.61.
For RTFGPPPSLCPGAFSYSSSSRFSS [S10C], the protein stability index was determined as 3.45.
With RTFGPPPSLYPGAFSYSSSSRFSS [S10Y], the protein stability index came out at 2.36.
Still for that read-out and setting: then RTFGPPPSLGPGAFSYSSSSRFSS [S10G], with 3.46; and RTFGPPPSLQPGAFSYSSSSRFSS [S10Q], with 3.34; and RTFGPPDSLSPGAFSYSSSSRFSS [P7D], with 3.45.
Still for that read-out and setting: the value for RTFGPPESLSPGAFSYSSSSRFSS [P7E] was 2.89; that for RTFGPPGSLSPGAFSYSSSSRFSS [P7G] was 2.92; that for RTFGPPYSLSPGAFSYSSSSRFSS [P7Y] was 2.12.
With RTFGPPTSLSPGAFSYSSSSRFSS [P7T], the protein stability index was found to be 3.56.
The same measure, in the same setting: the value for RTFGPPSSLSPGAFSYSSSSRFSS [P7S] was 3.26; that for RTFGPPCSLSPGAFSYSSSSRFSS [P7C] was 1.6; that for RTFGPPKSLSPGAFSYSSSSRFSS [P7K] was 3.71.
RTFGPPQSLSPGAFSYSSSSRFSS [P7Q]: the protein stability index was 3.13.
The same measure, in the same setting: the value for RTFGPPRSLSPGAFSYSSSSRFSS [P7R] was 2.93; that for RTFGPPASLSPGAFSYSSSSRFSS [P7A] was 3.22; that for RTFGPPVSLSPGAFSYSSSSRFSS [P7V] was 2.86.
On the same count and under the same terms, the value for RTFGPPLSLSPGAFSYSSSSRFSS [P7L] was 2.71; that for RTFGPPHSLSPGAFSYSSSSRFSS [P7H] was 3.15; that for RTFGPPWSLSPGAFSYSSSSRFSS [P7W] was 2.08.
As to RTFGPPMSLSPGAFSYSSSSRFSS [P7M], the protein stability index amounted to 2.77.
The same measure, in the same setting: then RTFGPPISLSPGAFSYSSSSRFSS [P7I], with 2.53; and RTFGPPFSLSPGAFSYSSSSRFSS [P7F], with 2.34; and RTFGPPNSLSPGAFSYSSSSRFSS [P7N], with 3.02.
On the same count and under the same terms, then RTFGPPPSLSKGAFSYSSSSRFSS [P11K], with 2.44.
The same measure, in the same setting: the value for RTFGPPPSLSFGAFSYSSSSRFSS [P11F] was 2.11.
With RTFGPPPSLSNGAFSYSSSSRFSS [P11N], the protein stability index is 3.12.
On to RTFGPPPSLSRGAFSYSSSSRFSS [P11R], for which the protein stability index was 3.63.
For the variant RTFGPPPSLSQGAFSYSSSSRFSS [P11Q], the protein stability index turned out to be 3.38.
On the same count and under the same terms, the value for RTFGPPPSLSEGAFSYSSSSRFSS [P11E] was 4; that for RTFGPPPSLSDGAFSYSSSSRFSS [P11D] was 3.45; that for RTFGPPPSLSTGAFSYSSSSRFSS [P11T] was 2.94.
Same read-out and setting: then RTFGPPPSLSHGAFSYSSSSRFSS [P11H], with 2.74.
Same read-out and setting: then RTFGPPPSLSGGAFSYSSSSRFSS [P11G], with 2.88.
As to RTFGPPPSLSWGAFSYSSSSRFSS [P11W], the protein stability index is 2.23.
Still for that read-out and setting: then RTFGPPPSLSIGAFSYSSSSRFSS [P11I], with 2.46.
Regarding RTFGPPPSLSMGAFSYSSSSRFSS [P11M], the protein stability index is 2.52.
Regarding RTFGPPPSLSAGAFSYSSSSRFSS [P11A], the protein stability index was 3.11.
On the same count and under the same terms, then RTFGPPPSLSYGAFSYSSSSRFSS [P11Y], with 2.41; and RTFGPPPSLSLGAFSYSSSSRFSS [P11L], with 2.59; and RTFGPPPSLSCGAFSYSSSSRFSS [P11C], with 1.64.
Still for that read-out and setting: the value for RTFGPPPSLSSGAFSYSSSSRFSS [P11S] was 3.04; that for RTFGPPPSLSVGAFSYSSSSRFSS [P11V] was 2.69; that for RTGGPPPSLSPGAFSYSSSSRFSS [F3G] was 3.13.
On the same count and under the same terms, then RTNGPPPSLSPGAFSYSSSSRFSS [F3N], with 3.38.
For the variant RTAGPPPSLSPGAFSYSSSSRFSS [F3A], the protein stability index came to 3.33.
For RTVGPPPSLSPGAFSYSSSSRFSS [F3V], the protein stability index stood at 3.31.
Still for that read-out and setting: then RTYGPPPSLSPGAFSYSSSSRFSS [F3Y], with 3.16; and RTKGPPPSLSPGAFSYSSSSRFSS [F3K], with 3.38; and RTMGPPPSLSPGAFSYSSSSRFSS [F3M], with 3.75.
In the case of RTEGPPPSLSPGAFSYSSSSRFSS [F3E], the protein stability index stood at 3.72.
Still for that read-out and setting: then RTCGPPPSLSPGAFSYSSSSRFSS [F3C], with 2.82; and RTRGPPPSLSPGAFSYSSSSRFSS [F3R], with 3.41; and RTLGPPPSLSPGAFSYSSSSRFSS [F3L], with 4.11.
The same measure, in the same setting: the value for RTIGPPPSLSPGAFSYSSSSRFSS [F3I] was 3.46; that for RTSGPPPSLSPGAFSYSSSSRFSS [F3S] was 3.6; that for RTTGPPPSLSPGAFSYSSSSRFSS [F3T] was 3.54.
Same read-out and setting: then RTDGPPPSLSPGAFSYSSSSRFSS [F3D], with 4.09.
With RTWGPPPSLSPGAFSYSSSSRFSS [F3W], the protein stability index turned out to be 3.19.
Still for that read-out and setting: then RTFCPPPSLSPGAFSYSSSSRFSS [G4C], with 2.9; and RTFNPPPSLSPGAFSYSSSSRFSS [G4N], with 3.12.
Still for that read-out and setting: then RTFWPPPSLSPGAFSYSSSSRFSS [G4W], with 2.22.
With RTFMPPPSLSPGAFSYSSSSRFSS [G4M], the protein stability index amounted to 3.08.
On the same count and under the same terms, the value for RTFVPPPSLSPGAFSYSSSSRFSS [G4V] was 2.37; that for RTFEPPPSLSPGAFSYSSSSRFSS [G4E] was 3.43; that for RTFIPPPSLSPGAFSYSSSSRFSS [G4I] was 2.55.
Turning to RTFRPPPSLSPGAFSYSSSSRFSS [G4R], the protein stability index was determined as 3.1.
With RTFQPPPSLSPGAFSYSSSSRFSS [G4Q], the protein stability index was 3.26.
RTFHPPPSLSPGAFSYSSSSRFSS [G4H]: the protein stability index came out at 3.2.
Regarding RTFDPPPSLSPGAFSYSSSSRFSS [G4D], the protein stability index was 3.36.
On the same count and under the same terms, then RTFFPPPSLSPGAFSYSSSSRFSS [G4F], with 3.06; and RTFKPPPSLSPGAFSYSSSSRFSS [G4K], with 2.26; and RTFLPPPSLSPGAFSYSSSSRFSS [G4L], with 2.42.
Same read-out and setting: the value for RTFSPPPSLSPGAFSYSSSSRFSS [G4S] was 3.21.
On the same count and under the same terms, the value for RTFGFPPSLSPGAFSYSSSSRFSS [P5F] was 2.61; that for RTFGCPPSLSPGAFSYSSSSRFSS [P5C] was 2.64.
As to RTFGMPPSLSPGAFSYSSSSRFSS [P5M], the protein stability index was 2.6.
Regarding RTFGSPPSLSPGAFSYSSSSRFSS [P5S], the protein stability index came out at 2.99.
For the variant RTFGAPPSLSPGAFSYSSSSRFSS [P5A], the protein stability index was 2.76.
The same measure, in the same setting: then RTFGRPPSLSPGAFSYSSSSRFSS [P5R], with 2.71; and RTFGEPPSLSPGAFSYSSSSRFSS [P5E], with 3.23.
